# Assay results as given in paper PMC4434323.
# Legend:
# [1] = biological target: T1, die-1 (C18D1.1) (Caenorhabditis elegans) (UniProt A0A131MCR4)
# T1 sequence: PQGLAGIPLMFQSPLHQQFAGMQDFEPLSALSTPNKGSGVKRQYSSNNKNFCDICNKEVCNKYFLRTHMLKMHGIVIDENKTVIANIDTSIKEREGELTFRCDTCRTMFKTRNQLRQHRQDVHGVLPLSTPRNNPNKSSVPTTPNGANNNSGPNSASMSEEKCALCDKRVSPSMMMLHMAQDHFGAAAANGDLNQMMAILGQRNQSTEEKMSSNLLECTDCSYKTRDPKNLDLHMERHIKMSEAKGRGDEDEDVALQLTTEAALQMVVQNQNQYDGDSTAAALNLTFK
# [2] = biological target: ZC328.2 (ZC328.2) (Caenorhabditis elegans) (UniProt O02050)
# Chain of ZC328.2 (ZC328.2) (Caenorhabditis elegans) (O02050 entry or part of it): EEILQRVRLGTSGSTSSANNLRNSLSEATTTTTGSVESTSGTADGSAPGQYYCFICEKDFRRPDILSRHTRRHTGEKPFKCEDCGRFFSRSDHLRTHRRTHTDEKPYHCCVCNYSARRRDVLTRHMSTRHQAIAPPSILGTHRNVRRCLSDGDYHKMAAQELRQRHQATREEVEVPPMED
# [3] = biological target: egrh-1 (C27C12.2) (Caenorhabditis elegans) (UniProt Q18250)
# Chain of egrh-1 (C27C12.2) (Caenorhabditis elegans) (Q18250 324-461): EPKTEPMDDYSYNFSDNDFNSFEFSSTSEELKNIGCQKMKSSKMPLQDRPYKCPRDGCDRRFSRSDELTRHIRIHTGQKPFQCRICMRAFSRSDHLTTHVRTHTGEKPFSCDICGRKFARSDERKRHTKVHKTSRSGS
# [4] = biological target: T2, B0310.2 (B0310.2) (Caenorhabditis elegans) (UniProt Q10938)
# T2 sequence: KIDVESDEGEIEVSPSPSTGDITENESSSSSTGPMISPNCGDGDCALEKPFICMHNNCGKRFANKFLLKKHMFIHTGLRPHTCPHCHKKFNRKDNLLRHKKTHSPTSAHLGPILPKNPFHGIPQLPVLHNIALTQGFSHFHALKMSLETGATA
# [5] = biological target: T3, ham-2 (C07A12.1) (Caenorhabditis elegans) (UniProt H2KYH4)
# T3 sequence: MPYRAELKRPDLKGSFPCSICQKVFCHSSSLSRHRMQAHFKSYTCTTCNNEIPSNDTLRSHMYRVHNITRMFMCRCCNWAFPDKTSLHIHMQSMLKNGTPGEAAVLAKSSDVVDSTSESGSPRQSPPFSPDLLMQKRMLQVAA
# [6] = biological target: T4, ztf-29 (Y66D12A.12) (Caenorhabditis elegans) (UniProt Q95Q03)
# T4 sequence: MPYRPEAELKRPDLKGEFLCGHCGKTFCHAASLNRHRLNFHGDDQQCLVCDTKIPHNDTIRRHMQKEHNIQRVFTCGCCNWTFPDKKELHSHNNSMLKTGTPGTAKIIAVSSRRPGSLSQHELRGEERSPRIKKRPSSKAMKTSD
# [7] = biological target: odd-2 (C34H3.2) (Caenorhabditis elegans) (UniProt Q9N5X6)
# Chain of odd-2 (C34H3.2) (Caenorhabditis elegans) (Q9N5X6 74-252): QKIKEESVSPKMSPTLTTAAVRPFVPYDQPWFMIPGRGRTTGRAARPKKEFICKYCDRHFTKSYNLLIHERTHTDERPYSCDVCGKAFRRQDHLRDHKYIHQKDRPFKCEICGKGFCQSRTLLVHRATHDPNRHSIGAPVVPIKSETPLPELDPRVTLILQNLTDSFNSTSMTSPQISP
# [8] = biological target: T5, ZK337.2 (ZK337.2) (Caenorhabditis elegans) (UniProt O46016)
# T5 sequence: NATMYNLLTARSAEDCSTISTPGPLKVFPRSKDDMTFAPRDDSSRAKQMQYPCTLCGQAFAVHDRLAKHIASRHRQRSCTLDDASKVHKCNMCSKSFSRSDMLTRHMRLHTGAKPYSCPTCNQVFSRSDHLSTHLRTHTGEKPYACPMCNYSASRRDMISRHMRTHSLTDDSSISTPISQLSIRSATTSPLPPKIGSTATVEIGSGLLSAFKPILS
# [9] = biological target: T6, zip-3 (W07G1.3) (Caenorhabditis elegans) (UniProt Q9XUK2)
# T6 sequence: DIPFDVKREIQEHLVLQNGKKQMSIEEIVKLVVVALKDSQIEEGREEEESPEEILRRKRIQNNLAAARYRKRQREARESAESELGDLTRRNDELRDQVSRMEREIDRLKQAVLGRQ
# [10] = biological target: T7, atf-5 (T04C10.4) (Caenorhabditis elegans) (UniProt Q22156)
# T7 sequence: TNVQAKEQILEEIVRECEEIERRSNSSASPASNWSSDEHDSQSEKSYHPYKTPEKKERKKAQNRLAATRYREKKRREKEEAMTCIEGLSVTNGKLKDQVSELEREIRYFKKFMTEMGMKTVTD
# [11] = biological target: atf-7 (C07G2.2) (Caenorhabditis elegans) (UniProt Q86MD3)
# Chain of atf-7 (C07G2.2) (Caenorhabditis elegans) (Q86MD3 339-508): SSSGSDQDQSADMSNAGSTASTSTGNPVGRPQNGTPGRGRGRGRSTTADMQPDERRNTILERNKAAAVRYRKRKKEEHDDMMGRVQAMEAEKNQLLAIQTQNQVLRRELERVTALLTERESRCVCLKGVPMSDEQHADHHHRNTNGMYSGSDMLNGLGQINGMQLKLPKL
# [12] = biological target: T8, ztf-19 (T27B1.2) (Caenorhabditis elegans) (UniProt Q22829)
# T8 sequence: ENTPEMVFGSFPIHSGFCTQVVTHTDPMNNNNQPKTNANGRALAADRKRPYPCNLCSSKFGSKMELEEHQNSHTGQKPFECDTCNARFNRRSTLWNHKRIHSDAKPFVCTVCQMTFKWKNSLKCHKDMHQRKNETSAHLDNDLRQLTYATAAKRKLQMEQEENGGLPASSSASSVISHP
sequence,measurement,setting,value
CTTTTAAA (double strand) [8-mer CTTTTAAA],binding signal (PBM E-score (-0.5 to 0.5)),[1],0.47
CCCCCGCG (double strand) [8-mer CCCCCGCG],binding signal (PBM E-score (-0.5 to 0.5)),[2],0.488
same,binding signal (PBM E-score (-0.5 to 0.5)),[3],0.485
CTACCTCA (double strand) [8-mer CTACCTCA],binding signal (PBM E-score (-0.5 to 0.5)),[4],0.484
TAAGCTTA (double strand) [8-mer TAAGCTTA],binding signal (PBM E-score (-0.5 to 0.5)),[5],0.497
same,binding signal (PBM E-score (-0.5 to 0.5)),[6],0.496
CGGTAGCA (double strand) [8-mer CGGTAGCA],binding signal (PBM E-score (-0.5 to 0.5)),[7],0.496
TACCTCAA (double strand) [8-mer TACCTCAA],binding signal (PBM E-score (-0.5 to 0.5)),[4],0.495
GCTACTGA (double strand) [8-mer GCTACTGA],binding signal (PBM E-score (-0.5 to 0.5)),[7],0.486
ATTTAAAA (double strand) [8-mer ATTTAAAA],binding signal (PBM E-score (-0.5 to 0.5)),[1],0.481
ATGAGGGA (double strand) [8-mer ATGAGGGA],binding signal (PBM E-score (-0.5 to 0.5)),[4],0.478
GCCCACGC (double strand) [8-mer GCCCACGC],binding signal (PBM E-score (-0.5 to 0.5)),[2],0.485
same,binding signal (PBM E-score (-0.5 to 0.5)),[3],0.495
ACCTCAAT (double strand) [8-mer ACCTCAAT],binding signal (PBM E-score (-0.5 to 0.5)),[4],0.49
AGCTAGCT (double strand) [8-mer AGCTAGCT],binding signal (PBM E-score (-0.5 to 0.5)),[5],0.488
CGCCCCCG (double strand) [8-mer CGCCCCCG],binding signal (PBM E-score (-0.5 to 0.5)),[2],0.489
same,binding signal (PBM E-score (-0.5 to 0.5)),[3],0.496
same,binding signal (PBM E-score (-0.5 to 0.5)),[8],0.49
GAACCTCA (double strand) [8-mer GAACCTCA],binding signal (PBM E-score (-0.5 to 0.5)),[4],0.48
AGCTACTG (double strand) [8-mer AGCTACTG],binding signal (PBM E-score (-0.5 to 0.5)),[7],0.492
CAGTAGCG (double strand) [8-mer CAGTAGCG],binding signal (PBM E-score (-0.5 to 0.5)),[7],0.488
ATGCTTAA (double strand) [8-mer ATGCTTAA],binding signal (PBM E-score (-0.5 to 0.5)),[5],0.48
CCAGTAGC (double strand) [8-mer CCAGTAGC],binding signal (PBM E-score (-0.5 to 0.5)),[7],0.492
TGACATCA (double strand) [8-mer TGACATCA],binding signal (PBM E-score (-0.5 to 0.5)),[9],0.49
same,binding signal (PBM E-score (-0.5 to 0.5)),[10],0.468
ACCTCACT (double strand) [8-mer ACCTCACT],binding signal (PBM E-score (-0.5 to 0.5)),[4],0.478
CCTCAATC (double strand) [8-mer CCTCAATC],binding signal (PBM E-score (-0.5 to 0.5)),[4],0.477
AACCTCAA (double strand) [8-mer AACCTCAA],binding signal (PBM E-score (-0.5 to 0.5)),[4],0.483
GGTTTAAA (double strand) [8-mer GGTTTAAA],binding signal (PBM E-score (-0.5 to 0.5)),[1],0.484
CGCCCCCA (double strand) [8-mer CGCCCCCA],binding signal (PBM E-score (-0.5 to 0.5)),[3],0.493
same,binding signal (PBM E-score (-0.5 to 0.5)),[8],0.494
ATGACGTA (double strand) [8-mer ATGACGTA],binding signal (PBM E-score (-0.5 to 0.5)),[9],0.49
same,binding signal (PBM E-score (-0.5 to 0.5)),[10],0.459
same,binding signal (PBM E-score (-0.5 to 0.5)),[11],0.498
ATTTAAAC (double strand) [8-mer ATTTAAAC],binding signal (PBM E-score (-0.5 to 0.5)),[1],0.484
TTTTAAAA (double strand) [8-mer TTTTAAAA],binding signal (PBM E-score (-0.5 to 0.5)),[1],0.494
GTTTAAAA (double strand) [8-mer GTTTAAAA],binding signal (PBM E-score (-0.5 to 0.5)),[1],0.471
GTTTAAAC (double strand) [8-mer GTTTAAAC],binding signal (PBM E-score (-0.5 to 0.5)),[12],0.494
same,binding signal (PBM E-score (-0.5 to 0.5)),[1],0.481
TTTAAAAA (double strand) [8-mer TTTAAAAA],binding signal (PBM E-score (-0.5 to 0.5)),[1],0.48
